In the Human Domainome abundance scans (Beltran et al. 2025):
± gives the uncertainty stated by the source.

B1: TOX high mobility group box family member 3, residues 256 to 323; numbered along this chain, O15405 (parent)
chain: QKPVSAYALFFRDTQAAIKGQNPNATFGEVSKIVASMWDSLGEEQKQVYKRKTEAAKKEYLKALAAYR

Variants of: B1
Test: abundance fitness (aPCA) (normalised: wild type 0, dead -1); higher = more abundant; growth selection in yeast, the domain comes from the species named
Conditions: Homo sapiens

Variant	abundance fitness
Q15R	-0.309 ± 0.072
Q15Y	0.367 ± 0.34
Q15C	-0.178 ± 0.2
E43N	-0.374 ± 0.17
E43C	-0.165 ± 0.1
E43G	-0.43 ± 0.099
E43I	-0.339 ± 0.18
E43S	-0.118 ± 0.051
E43T	-0.022 ± 0.06
E43P	0.058 ± 0.056
E43A	-0.085 ± 0.054
Q47K	-0.048 ± 0.087
Q47A	-0.101 ± 0.075
Q47S	-0.079 ± 0.054
Q47E	-0.052 ± 0.1
Q47P	-0.812 ± 0.12
Q47D	0.033 ± 0.12
A35P	-0.826 ± 0.12
A35C	-0.275 ± 0.088
A35V	-0.727 ± 0.19
A35K	-0.024 ± 0.13
A35D	-0.275 ± 0.12
A35I	-0.123 ± 0.12
A35F	-0.375 ± 0.11

Variant	abundance fitness
A35L	-0.289 ± 0.068
A35R	0.12 ± 0.048
A35S	-0.037 ± 0.05
A35M	-0.22 ± 0.09
D39Q	0.003 ± 0.088
D39T	-0.292 ± 0.092
D39F	-0.167 ± 0.07
D39A	-0.026 ± 0.064
D39Y	-0.231 ± 0.085
D39N	-0.217 ± 0.21
D39R	-0.016 ± 0.05
R12P	-1 ± 0.23
R12V	-0.433 ± 0.1
R12H	0.062 ± 0.15
R12G	-0.223 ± 0.067
R12K	0.022 ± 0.12
Q45M	-0.431 ± 0.098
Q45T	-0.114 ± 0.098
Q45E	0.092 ± 0.13
Q45P	-0.546 ± 0.066
Q45A	-0.154 ± 0.075
Q45G	-0.17 ± 0.055
N22K	-0.382 ± 0.13
N22H	0.037 ± 0.085

Variant	abundance fitness
I18H	-0.902 ± 0.34
I18W	-0.692 ± 0.16
I18F	-0.746 ± 0.16
I18V	0.012 ± 0.057
I18R	-0.707 ± 0.12
I18Y	0.02 ± 0.25
I18T	-0.721 ± 0.19
I18A	-0.607 ± 0.13
I18C	-0.685 ± 0.16
I18G	-0.966 ± 0.18
K32Y	-0.662 ± 0.14
K32A	-0.048 ± 0.058
K32W	-0.455 ± 0.14
K32N	0.214 ± 0.21
K32D	-0.078 ± 0.075
E54T	-0.237 ± 0.064
E54V	-0.239 ± 0.053
E54W	-0.331 ± 0.067
K46T	-0.395 ± 0.11
K46V	-0.437 ± 0.054
K50R	0.079 ± 0.25
K50A	-0.15 ± 0.24
L61F	-0.213 ± 0.058
Y60R	-0.129 ± 0.069

Variant	abundance fitness
Y60F	0.068 ± 0.29
Y60T	0.148 ± 0.059
Y60S	0.039 ± 0.057
Y60I	-0.556 ± 0.2
A56E	-0.007 ± 0.077
A56W	-0.463 ± 0.07
A56I	-0.167 ± 0.21
A56C	-0.104 ± 0.078
A56G	-0.017 ± 0.057
A56K	0.17 ± 0.071
A56S	-0.146 ± 0.052
A56R	-0.201 ± 0.054
V30T	-0.342 ± 0.13
V30W	-0.319 ± 0.074
V30E	-0.453 ± 0.1
V30M	-0.162 ± 0.1
K52Y	-0.28 ± 0.073
K52H	-0.272 ± 0.066
K52I	-0.652 ± 0.081
K52T	-0.426 ± 0.065
K52W	-0.617 ± 0.1
I33C	-0.324 ± 0.089
I33D	-0.771 ± 0.18
I33N	-0.329 ± 0.094

Variant	abundance fitness
I33Y	-0.174 ± 0.11
I33P	-1.01 ± 0.12
A6I	-0.833 ± 0.37
A6Q	-0.185 ± 0.17
A6G	-0.168 ± 0.079
A6F	-0.661 ± 0.16
A6P	0.054 ± 0.059
A6T	-0.6 ± 0.18
A6Y	-0.34 ± 0.17
A6L	-0.37 ± 0.086
P3C	-0.342 ± 0.076
P3M	-0.296 ± 0.096
P3E	-0.199 ± 0.2
Q1I	-0.035 ± 0.11
Q1H	0.119 ± 0.09
Q1R	-0.087 ± 0.06
Q1Y	0.123 ± 0.073
Q1K	0.247 ± 0.15
Q1G	0.107 ± 0.088
Q1T	0.012 ± 0.094
D13T	-0.247 ± 0.089
S40Q	0.003 ± 0.069
S40R	-0.004 ± 0.05
S40W	-0.838 ± 0.15

Variant	abundance fitness
S40A	0.005 ± 0.062
S40V	-0.167 ± 0.058
S40E	0.01 ± 0.042
F10D	-0.752 ± 0.23
F10I	-0.98 ± 0.34
F10Q	-0.71 ± 0.19
F10W	-0.957 ± 0.2
F10K	-0.946 ± 0.17
F10N	-0.916 ± 0.45
K62E	-0.006 ± 0.059
K62F	-0.519 ± 0.082
K62D	0.019 ± 0.078
K62V	-0.458 ± 0.059
K62N	-0.069 ± 0.069
S31W	-0.696 ± 0.15
S31Y	-0.162 ± 0.12
G28I	-0.076 ± 0.23
G28N	0.117 ± 0.16
G28C	-0.046 ± 0.079
G28W	-0.175 ± 0.06
G28T	-0.028 ± 0.086
G28A	-0.096 ± 0.065
G28V	-0.12 ± 0.056
G28Q	-0.159 ± 0.1

Variant	abundance fitness
G28Y	-0.5 ± 0.15
E59M	-0.51 ± 0.16
E59N	-0.246 ± 0.15
E59Q	-0.205 ± 0.067
E59L	-0.39 ± 0.058
E59P	-0.061 ± 0.085
E59C	-0.366 ± 0.15
A8C	0.163 ± 0.097
A8F	-0.33 ± 0.18
A8H	0.136 ± 0.17
Q21H	-0.175 ± 0.082
Q21F	-0.444 ± 0.11
Q21S	-0.029 ± 0.038
Q21N	0.048 ± 0.077
Q21D	-0.126 ± 0.092
Q21A	-0.051 ± 0.058
L41A	-0.225 ± 0.068
L41F	-0.507 ± 0.15
L41G	-0.474 ± 0.07
L41N	-1.16 ± 0.46
L41D	-0.847 ± 0.34
L41Q	-0.718 ± 0.2
L41C	-0.592 ± 0.11
